Experimental data reported in patent US20250011363A1, “OPTIMIZED SHORTENED PEPTIDE THAT BINDS TO ACETYLCHOLINE RECEPTOR, AND USE THEREOF” (SKINMED CO., LTD., priority 2021, published 2025).

biological target: acetylcholine receptor (Homo sapiens, UniProt P02708); test: SPR binding affinity (RU) of optimized 5mer/6mer/7mer peptides, Examples 6-7; conditions: 6mer-1 Top sequence; SPR; peptides tested at 10 μM
In short: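 600 peptides per series (5mer, 6mer-1, 6mer-2), made from high- or low-frequency amino acid combinations, are screened by SPR at 10 μM; binding is recorded in RU.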

Chain of acetylcholine receptor (P02708 21-457): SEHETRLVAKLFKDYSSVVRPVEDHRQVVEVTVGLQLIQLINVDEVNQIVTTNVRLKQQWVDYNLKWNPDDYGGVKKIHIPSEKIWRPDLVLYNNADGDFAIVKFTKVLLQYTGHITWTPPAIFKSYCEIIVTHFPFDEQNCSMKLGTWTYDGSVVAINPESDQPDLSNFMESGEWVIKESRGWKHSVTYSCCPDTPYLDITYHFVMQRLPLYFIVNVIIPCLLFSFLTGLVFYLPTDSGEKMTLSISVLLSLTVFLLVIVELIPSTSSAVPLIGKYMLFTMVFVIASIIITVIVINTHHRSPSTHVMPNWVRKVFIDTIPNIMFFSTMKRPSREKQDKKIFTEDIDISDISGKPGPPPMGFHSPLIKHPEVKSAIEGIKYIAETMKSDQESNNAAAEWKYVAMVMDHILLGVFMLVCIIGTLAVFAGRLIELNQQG

| Substance | Binding affinity [Ru] |
| --- | --- |
| 6mer-1-268 (KRRQSK) | 144 |
| 6mer-1-269 (RKRRQR) | 142 |
| 6mer-1-270 (KRGLRR) | 149 |
| 6mer-1-271 (RRQVSK) | 122 |
| 6mer-1-272 (KKQVSR) | 139 |
| 6mer-1-273 (KKQVSK) | 137 |
| 6mer-1-275 (RKRVLK) | 123 |
| 6mer-1-276 (RRVICK) | 128 |
| 6mer-1-277 (KKGLCR) | 141 |
| 6mer-1-278 (KRQQTR) | 142 |
| 6mer-1-279 (RRLRYR) | 145 |
| 6mer-1-280 (RKLQCK) | 149 |
| 6mer-1-281 (KRLLCR) | 154 |
| 6mer-1-282 (RRRRYR) | 121 |
| 6mer-1-283 (KKWVQK) | 133 |
| 6mer-1-284 (KRSRQK) | 145 |
| 6mer-1-285 (KRWVQR) | 122 |
| 6mer-1-286 (RKLISK) | 139 |
| 6mer-1-287 (RKWLTR) | 136 |
| 6mer-1-288 (KKVQQR) | 148 |
| 6mer-1-289 (RKRYYR) | 153 |
| 6mer-1-290 (RKQLTK) | 146 |
| 6mer-1-291 (KKQIRK) | 142 |

| Substance | Binding affinity [Ru] |
| --- | --- |
| 6mer-1-292 (RKWQTK) | 122 |
| 6mer-1-293 (RKRVCK) | 154 |
| 6mer-1-294 (KKLYRR) | 123 |
| 6mer-1-295 (KRQRCR) | 148 |
| 6mer-1-296 (RKSIRR) | 121 |
| 6mer-1-297 (RRGFSK) | 139 |
| 6mer-1-298 (KKLYCK) | 147 |
| 6mer-1-299 (KRWLSK) | 139 |
| 6mer-1-300 (RRWQQK) | 148 |
| 6mer-1-301 (RRSILR) | 154 |
| 6mer-1-302 (RRGQSR) | 151 |
| 6mer-1-303 (RKQYCK) | 123 |
| 6mer-1-304 (RKLYSR) | 121 |
| 6mer-1-305 (RKWISR) | 153 |
| 6mer-1-306 (KKLFYR) | 135 |
| 6mer-1-307 (KRWYRR) | 153 |
| 6mer-1-308 (KRRITR) | 135 |
| 6mer-1-309 (KKGICK) | 153 |
| 6mer-1-310 (RKRQLK) | 127 |
| 6mer-1-311 (RRGYQK) | 127 |
| 6mer-1-312 (KKSRQK) | 151 |
| 6mer-1-313 (RRWFCK) | 148 |
| 6mer-1-314 (RRRILR) | 141 |

| Substance | Binding affinity [Ru] |
| --- | --- |
| 6mer-1-315 (RKQQTK) | 128 |
| 6mer-1-316 (RKQIRK) | 145 |
| 6mer-1-317 (KRSFRR) | 148 |
| 6mer-1-318 (KKSRRK) | 145 |
| 6mer-1-319 (KRWVQK) | 123 |
| 6mer-1-320 (KRVQYR) | 121 |
| 6mer-1-321 (RKQVRR) | 154 |
| 6mer-1-322 (KRGVQR) | 146 |
| 6mer-1-323 (RRWLYR) | 149 |
| 6mer-1-324 (RRLQRR) | 128 |
| 6mer-1-325 (RRQIQR) | 142 |
| 6mer-1-326 (RKWIYK) | 136 |
| 6mer-1-327 (KRGITR) | 139 |
| 6mer-1-328 (KRWLQK) | 151 |
| 6mer-1-329 (RKWRQK) | 123 |
| 6mer-1-330 (RKVQRK) | 148 |
| 6mer-1-331 (RKRITR) | 128 |
| 6mer-1-332 (KKRVQK) | 122 |
| 6mer-1-333 (RKRQSR) | 135 |
| 6mer-1-334 (RRRRLR) | 154 |
| 6mer-1-335 (RRSQRR) | 148 |
| 6mer-1-336 (KRVVTK) | 154 |
| 6mer-1-337 (RKSRRR) | 144 |

| Substance | Binding affinity [Ru] |
| --- | --- |
| 6mer-1-338 (KKQVLK) | 127 |
| 6mer-1-339 (KKSIQK) | 147 |
| 6mer-1-340 (KRLLCK) | 142 |
| 6mer-1-341 (RKQQQR) | 128 |
| 6mer-1-342 (RKRFCR) | 131 |
| 6mer-1-343 (KKLYTK) | 135 |
| 6mer-1-344 (KKSQCR) | 125 |
| 6mer-1-345 (KKLLCR) | 147 |
| 6mer-1-346 (KKRIYR) | 123 |
| 6mer-1-347 (KKQQSK) | 126 |
| 6mer-1-348 (RKQRLK) | 142 |
| 6mer-1-349 (KRLYSK) | 123 |
| 6mer-1-350 (KKLQTK) | 153 |
| 6mer-1-351 (RRGLRK) | 141 |
| 6mer-1-352 (RKVFRK) | 142 |
| 6mer-1-353 (KRLYLK) | 126 |
| 6mer-1-354 (KKVFLK) | 153 |
| 6mer-1-355 (RKVFYR) | 148 |
| 6mer-1-356 (KRGYSK) | 153 |
| 6mer-1-357 (KRRQTR) | 148 |
| 6mer-1-358 (KRRYTR) | 124 |
| 6mer-1-359 (KRQFLR) | 131 |
| 6mer-1-360 (KRVFLK) | 148 |

| Substance | Binding affinity [Ru] |
| --- | --- |
| 6mer-1-361 (RKSVQR) | 127 |
| 6mer-1-362 (KRVVYK) | 133 |
| 6mer-1-363 (KRQIRR) | 121 |
| 6mer-1-364 (RKRQSK) | 124 |
| 6mer-1-365 (KKRICK) | 142 |
| 6mer-1-366 (KRWFCR) | 133 |
| 6mer-1-367 (RKGFSK) | 154 |
| 6mer-1-368 (RRRFSK) | 145 |
| 6mer-1-369 (KKWYRK) | 144 |
| 6mer-1-370 (RKQLYK) | 142 |
| 6mer-1-371 (KRSLTR) | 153 |
| 6mer-1-372 (RKLRSK) | 145 |
| 6mer-1-373 (KRGVLK) | 149 |
| 6mer-1-374 (KKQFQK) | 148 |
| 6mer-1-375 (RRVFYR) | 154 |
| 6mer-1-376 (RRQLRK) | 121 |
| 6mer-1-377 (KRWITR) | 148 |
| 6mer-1-378 (KRSLQK) | 153 |
| 6mer-1-379 (KRRISK) | 153 |
| 6mer-1-380 (KRLQLR) | 121 |
| 6mer-1-381 (RKGFYR) | 124 |
| 6mer-1-382 (KRQYTR) | 139 |
| 6mer-1-383 (RKRRTK) | 148 |

| Substance | Binding affinity [Ru] |
| --- | --- |
| 6mer-1-384 (RKVICK) | 148 |
| 6mer-1-385 (KRQVLR) | 127 |
| 6mer-1-386 (RRSYQK) | 127 |
| 6mer-1-387 (KKGRLR) | 148 |
| 6mer-1-388 (RRLLQR) | 142 |
| 6mer-1-389 (RKLFCK) | 125 |
| 6mer-1-390 (RKLQQR) | 121 |
| 6mer-1-391 (RRQRCK) | 131 |
| 6mer-1-392 (RRVQTR) | 135 |
| 6mer-1-393 (KRLYYK) | 148 |
| 6mer-1-394 (KKVRRR) | 149 |
| 6mer-1-395 (KKRQTK) | 125 |
| 6mer-1-396 (KRQIQK) | 148 |
| 6mer-1-397 (KRLILR) | 125 |
| 6mer-1-398 (KKQYYR) | 137 |
| 6mer-1-399 (KRWILR) | 125 |
| 6mer-1-400 (KRWQTK) | 123 |
| 6mer-1-401 (RRLYCR) | 127 |
| 6mer-1-402 (RRRVLR) | 153 |

same assay, conditions: SPR, peptides tested at 10 μM; 6mer-1 Top sequence

| Substance | Binding affinity [Ru] |
| --- | --- |
| 6mer-1-403 (KRSQTK) | 153 |
| 6mer-1-404 (KKQRQK) | 137 |
| 6mer-1-406 (RKVLLR) | 153 |
| 6mer-1-407 (KRLRTR) | 153 |
| 6mer-1-408 (KRGRSR) | 147 |
| 6mer-1-409 (RRWISR) | 144 |
| 6mer-1-410 (KRVLRK) | 148 |
| 6mer-1-411 (RRQRSR) | 121 |
| 6mer-1-412 (RKSILK) | 139 |
| 6mer-1-413 (RKQFCR) | 148 |
| 6mer-1-414 (KRSFLR) | 153 |
| 6mer-1-415 (RRGVCR) | 135 |
| 6mer-1-416 (RKLIYR) | 153 |
| 6mer-1-417 (RKSVCK) | 139 |
| 6mer-1-418 (RRQVRK) | 123 |
| 6mer-1-419 (KRGFYR) | 148 |
| 6mer-1-420 (KKGQYK) | 148 |
| 6mer-1-421 (RKVLYR) | 135 |
| 6mer-1-422 (KRVRQR) | 154 |
| 6mer-1-423 (RRGYCK) | 147 |
| 6mer-1-424 (RRRIYR) | 135 |
| 6mer-1-425 (RKGVQK) | 131 |
| 6mer-1-426 (KKGQYR) | 131 |
| 6mer-1-427 (KRWVLR) | 147 |
| 6mer-1-428 (KRVVLR) | 139 |
